According to patent US20190276542A1 (QILU PUGET SOUND BIOTHERAPEUTICS, published 2019):
Like-named read-outs stand apart in the source and are kept apart here.

B1: anti-hPD1 antibody #1 (antibody, V domains shown)
VH: QVQLVQSGAEVKKPGASVKVSCKASGYTFTNYWIHWVRQAPGQGLEWMGEIDPYDSYTNYNQKFKGRVTMTVDKSTSTVYMELSSLRSEDTAVYYCARPGFTYGGMDFWGQGTLVTVSS
VL: DIQMTQSPSSLSASVGDRVTITCKSSQSLFNSGNQKNYLAWYQQKPGKVPKLLIYGASTRDSGVPYRFSGSGSGTDFTLTISSLQPEDVATYYCQNDHYYPYTFGGGTKVEIKR
notes: also called Anti-hPD1 #1; Anti-PD1 #1
B2: anti-hPD1 antibody #3 (antibody, human IgG4, V domains shown)
VH: QVQLVQSGAEVKKPGASVKVSCKASSYTFTNYWMHWVRQAPGQGLEWMGEIDPYDSYTNYNQKFKGRVTMTIDTSTSTVYMELSSLTSEDTAVYYCARPGFTYGGMDFWGQGTLVTVSS
VL: DIQMTQSPSSLSASVGDRVTITCKSSQSLFNSGNQKNYLAWYQQKPGKVPKLLIYGASTRESGVPARFSGSGSGTDFTLTISSLQAEDVATYYCQNDHYYPYTFGGGTKVEIK
notes: also called Anti-hPD1 #3; Anti-PD1 #3
B3: anti-hPD1 antibody #4 (antibody, human IgG4, V domains shown)
VH: QVQLVQSGAEVKKPGASVKVSCKASGYTFTNYWMHWVRQAPGQGLEWMGEIDPFDSYTNYNQKFKGRVTMTRDTSTSTVYMELSSLTSEDTAVYYCARPGYTYGGMDFWGQGTLVTVSS
VL: DIQMTQSPSSLSASVGDRVTITCKSSQSLLNSGNQKNYLAWYQQKPGKPPKLLIYGASTRDSGVPSRFSGSGSGTDFTLTISSLQPEDVATYYCQNDHYYPYTFGGGTKVEIK
notes: also called Anti-hPD1 #4; Anti-PD1 #4
B4: anti-hPD1 antibody #7 (antibody, human IgG4, V domains shown)
VH: QVQLVQSGAEVKKPGASVKVSCKASGYTFTNYWIHWVRQAPGQGLEWMGEIDPYDSYTNYNQKFKGRVTMTIDKSTNTVYMELSSLRSEDTAVYYCARPGLTYGGMDFWGQGTLVTVSS
VL: DIVMTQSPDSLAVSLGERATINCRSSQSLFISGNQKNYLAWYQQKPGQPPKLLIYGASTRESGVPDRFSGSGSGTDFTLTISSLQAEDVAVYYCQNNHYYPYTFGGGTKVEIK
notes: also called Anti-hPD1 #7; Anti-PD1 #7
B5: anti-hPD1 antibody #10 (antibody, human IgG4, V domains shown)
VH: QVQLVQSGAEVKKPGASVKVSCKASGYTFTSYWMHWVRQAPGQGLEWMGEIDPFDSYTNYNQKFKGRVTMTIDKSTNTVYMELSSLGSEDTAVYYCARPGYTYGGMDFWGQGTLVTVSS
VL: DIVMTQSPDSLAVSLGERATINCRSSQSLFISGNQKNYLAWYQQKPGQPPKLLIYGASTRDSGVPDRFSGSGSGTDFTLTISSLQAEDVAVYYCQNNHYYPYTFGGGTKVEIK
notes: also called Anti-hPD1 #10; Anti-PD1 #10
B6: altered anti-hCTLA4 10D4 (antibody, human IgG1, kappa, V domains shown)
VH: QVQLVESGGGVVEPGRSLRLSCTASGFTFSSYGMHWVRQAPGKRLEWVAVIWYHPSKKDYADSAKGRFTISRDNSKNTLYLQMNSLRAEDTAVYYCARAGLLGYFDYWGDGTLVTVSS
VL: EIVLTQSPGTLSLSPGERATLSCRASQSVTSYLAWYQQKPGQRPRPLIYGVSSRATGIPDRFSGSGSGTDFTLTISRLEPEDFAVYYCQQYGRYPFTFGDGTKVDIKR
B7: altered anti-hPD1 antibody #1 (antibody, human IgG4 S228P, kappa, V domains shown)
VH: QVQLVQSGAEVKKPGASVKVSCKASGYTFTNYWIHWVRQAPGQDLEWMGEIDPYDSYTNYNQKFKGRVTMTVDKSTSTVYMELSSLRSEDTAVYYCARPGFTYGGMDFWGRGTLVTVSS
VL: DIQMTQSPSSLSASVGDRVTITCKSSQSLFNSGNQKNYLAWYQQKPGKDPKLLIYGASTRDSGVPYRFSGSGSGTDFTLTISSLQPEDVATYYCQNDHYYPYTFGRGTKVEIKR

Tests used:
[1] = biological target: T1, human PD1 expressed on a cell surface (human, UniProt Q15116 25-288); experiment: flow cytometry on OKT3-activated human T cells, CD4+ cells
T1 construct: whole, on cells; also called hPD1
T1 sequence (Q15116 25-288): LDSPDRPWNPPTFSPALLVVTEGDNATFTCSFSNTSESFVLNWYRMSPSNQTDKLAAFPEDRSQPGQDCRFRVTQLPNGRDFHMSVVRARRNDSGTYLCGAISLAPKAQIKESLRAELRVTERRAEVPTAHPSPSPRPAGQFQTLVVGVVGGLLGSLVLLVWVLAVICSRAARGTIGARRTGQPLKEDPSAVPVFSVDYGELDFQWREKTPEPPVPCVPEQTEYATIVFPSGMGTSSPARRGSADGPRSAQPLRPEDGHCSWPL
Method: (§1) The following experiment tested whether the selected anti-hPD1 antibodies can bind to native PD1 expressed on the surface of activated T cells. Human PBMCs were pre-activated with OKT3 (an anti-CD3 antibody) at a concentration of 1 μg/ml. After three days, the PBMCs, which were mostly activated T cells at this time, were distributed into a 96 well microtiter plate using 0.1×10⁶ cells/well. […] The antibody bound to CD4⁺ T cells and CD4⁻ T cells (which were predominately CD8⁺ T cells) was detected using anti-hlgG-FITC and an anti-CD4 antibody labeled with allophycocyanin (anti-CD4-APC).
(§2) The samples were analyzed by flow cytometry (FACScalibur, BD), and binding was reported as an MFI. EC₅₀'s for binding were calculated using GraphPad Prism software.

[2] = biological target: T2, soluble, biotinylated PD1 protein containing only the extracellular region (human, UniProt Q15116 25-170, biotinylated in vivo (site not stated)); experiment: …; inhibition of GST-hPDL1 binding to biotinylated hPD1
T2 construct: extracellular domain; also called biotinylated hPD1
T2 sequence (Q15116 25-170): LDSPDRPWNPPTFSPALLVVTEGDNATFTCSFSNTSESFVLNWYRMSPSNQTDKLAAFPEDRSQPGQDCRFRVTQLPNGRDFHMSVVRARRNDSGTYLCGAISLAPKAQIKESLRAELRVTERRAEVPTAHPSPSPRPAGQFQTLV
Method: Finally, 10 μL of streptavidin donor beads (which can bind the biotinylated hPD1) were added to bring the final concentration of donor beads to 16 μg/mL, and the plates were incubated in the dark at RT for one hour. […] An antibody that inhibits this interaction or binding will decrease the signal, since the inhibiting antibody prevents physical proximity of the donor and acceptor beads.
Plates were read in an EnVision 2103 Multilabel Reader (PerkinElmer) using illumination at a wavelength of 680 nm and reading emission at a wavelength of about […]. The results were plotted and IC₅₀ values were calculated using GraphPad Prism software.

[3] = biological target: T1, human PD1 expressed on a cell surface; experiment: flow cytometry on OKT3-activated human T cells, CD4- cells
Method: as §1, §2

[4] = biological target: T1, human PD1 expressed on a cell surface; experiment: cell-based or functional assay
[5] = biological target: T3, recombinant human (rhu) PD1 (extracellular domain only) (human, UniProt Q15116 25-170); experiment: SPR (Biacore 3000), antibody captured by anti-human IgG, PD1 as analyte
T3 construct: extracellular domain; also called recombinant human PD1
T3 sequence (Q15116 25-170): as above
Method: (§3) Biosensor analysis was conducted at 25° C. in an HBS-EP buffer (10 mM HEPES, 150 mM NaCl, 3 mM EDTA, 0.005% polysorbate 20, 0.1% bovine serum albumin, pH 7.4) using a Biacore 3000 optical biosensor equipped with a CM5 sensor chip according to the manufacturer's general protocol. The auto sampler was maintained at ambient temperature. […] About 8000 resonance units (RU) of this antibody was immobilized on these chips. Flow cell 4 was used to analyze captured anti-hPD1 antibodies (about 100 to 200 RU were captured on flow cell 4), while flow cell 3 was used as the reference flow cell. Both analytes, recombinant human PD1 and recombinant cynomolgus PD1, were prepared in five concentrations for each antibody tested. The analyte concentrations tested ranged from 1.2 to 300 nM. All analyte dilutions were prepared in HPS-EP buffer. Each of the five analyte sample concentrations were run in duplicate and in a mixed order, as a means of assessing the reproducibility of binding and mitigating systematic bias to the order of injection. Multiple blank (running buffer) injections also were run and used to assess and subtract system artifacts. The association phase and dissociation phase for all analyte concentrations were monitored for 300 seconds and 1500 seconds, respectively, at a flow rate of 50 μL/min. Between antibody samples the surface of the flow cell was regenerated with 10 mM glycine, pH 1.5 for 30 seconds at a flow rate of 50 μL/min.
(§4) The data was aligned, double referenced, and fit using SCRUBBER 2™ software (BioLogic Software, Pty, Australia), which is a Surface Plasmon Resonance (SPR) data processing and non-linear least squares regression fitting program.

[6] = biological target: T4, extracellular domain of a recombinant cynomolgus (rcyno) PD1 (cynomolgus monkey, UniProt B0LAJ3 25-170); experiment: as above
T4 construct: also called recombinant cynomolgus PD1
T4 sequence (B0LAJ3 entry or part of it limits assumed): as the sequence (Q15116 25-170) above, with D2E, P10A, V19L, T35A, Q75R, T144A counted along it
Method: as §3, §4

[7] = biological target: T1, human PD1 expressed on a cell surface; experiment: cell-based or functional assay; remark: listed apart in the source
[8] = biological target: T1, human PD1 expressed on a cell surface; experiment: cell-based or functional assay; remark: listed apart in the source
[9] = biological target: T1, human PD1 expressed on a cell surface; experiment: cell-based or functional assay; remark: listed apart in the source
[10] = biological target: human CTLA4 expressed on Jurkat T cells (human, UniProt P16410 36-223); experiment: cell-based or functional assay
human CTLA4 expressed on Jurkat T cells, sequence (P16410 36-223): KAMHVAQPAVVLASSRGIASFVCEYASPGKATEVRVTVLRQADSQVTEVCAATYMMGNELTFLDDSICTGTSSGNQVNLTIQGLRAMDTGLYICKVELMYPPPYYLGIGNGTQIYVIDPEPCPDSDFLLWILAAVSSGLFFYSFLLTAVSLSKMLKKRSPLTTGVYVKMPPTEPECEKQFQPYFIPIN

Binder | EC50 [1] | IC50 [2] | EC50 [3] | EC50 for CD4+ T cell proliferation (pM), mixed lymphocyte reaction [4] | EC50 for CD8+ T cell proliferation (pM), mixed lymphocyte reaction [4] | EC50 for IFN gamma production (pM), mixed lymphocyte reaction [4] | Kd [5] | koff [5] | kon [5] | Kd [6] | koff [6] | kon [6] | IC50, luciferase (RLU), PD1 dual cell reporter assay (Jurkat cells with hPD1 plus CHO-K1 cells with hPDL1) [7] | IC50, luciferase reporter assay (Jurkat cells with hPD1 plus CHO cells with hPDL1) [8] | IC50, luciferase reporter assay (Jurkat cells with hPD1 plus CHO cells with hPDL1) [9] | IC50, luciferase reporter assay (Jurkat cells with CTLA4 plus Raji cells with hCD80 and hCD86) [10] | IC50, luciferase reporter assay (Jurkat cells with hPD1 plus CHO cells with hPDL1); tested as the mixture Altered anti-CTLA4 11F4 and altered anti-PD1 #1 made in one cell line [8] | IC50, luciferase reporter assay (Jurkat cells with hPD1 plus CHO cells with hPDL1); tested as the mixture Altered anti-CTLA4 10D4 and altered anti-PD1 #1 made in one cell line [9]
B1 | 0.918 nM | 0.197 nM | 1.37 nM | 135 pM | 323 pM | 890 pM | 2.18 nM | 0.000133 s⁻¹ | 60900 M⁻¹ s⁻¹ | 5.06 nM | 0.000597 s⁻¹ | 118000 M⁻¹ s⁻¹ | 1.18 nM | 2.5 nM | 2.49 nM | – | – | –
B2 | 0.536 nM | 0.305 nM | 0.69 nM | 365 pM | 3670 pM | 2220 pM | 5.16 nM | 0.000348 s⁻¹ | 67400 M⁻¹ s⁻¹ | – | – | – | 2.37 nM | – | – | – | – | –
B3 | 0.672 nM | 0.314 nM | 0.885 nM | 391 pM | 534 pM | 1540 pM | 4.62 nM | 0.000279 s⁻¹ | 60400 M⁻¹ s⁻¹ | – | – | – | 2.03 nM | – | – | – | – | –
B4 | 0.439 nM | 0.307 nM | 0.569 nM | 165 pM | 1520 pM | 1460 pM | 0.297 nM | 3.54e-05 s⁻¹ | 119000 M⁻¹ s⁻¹ | 0.4 nM | 5.79e-05 s⁻¹ | 145000 M⁻¹ s⁻¹ | 2.39 nM | – | – | – | – | –
B5 | 1.07 nM | 0.279 nM | 1.6 nM | 234 pM | 839 pM | 2210 pM | 0.917 nM | 7.15e-05 s⁻¹ | 78000 M⁻¹ s⁻¹ | – | – | – | 2.69 nM | – | – | – | – | –
B6 | – | – | – | – | – | – | – | – | – | – | – | – | – | – | – | 3.75 nM | – | –
B7 | – | – | – | – | – | – | – | – | – | – | – | – | – | 2.67 nM | 2.65 nM | – | 3.34 nM | 3.8 nM
